According to article PMC9482650, “Quantitative fragmentomics allow affinity mapping of interactomes” (Nature Communications, 2022):

Assays:
Assay in all cases: holdup assay
Design in all cases: key: below the threshold = too weak to quantify, mostly under pKd 3.1 to 4
AHNAK1, Q09666 = biological target: AHNAK1, Q09666
APBA1_1, Q02410 = biological target: T1, APBA1_1, Q02410
T1 sequence (Q02410 651-752, limits assumed, looked up): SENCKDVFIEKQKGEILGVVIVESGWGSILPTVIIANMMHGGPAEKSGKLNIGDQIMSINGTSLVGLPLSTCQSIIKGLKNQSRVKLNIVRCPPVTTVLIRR

APBA2_1, Q99767 = biological target: T2, APBA2_1, Q99767
T2 sequence (Q99767 563-664, limits assumed, looked up): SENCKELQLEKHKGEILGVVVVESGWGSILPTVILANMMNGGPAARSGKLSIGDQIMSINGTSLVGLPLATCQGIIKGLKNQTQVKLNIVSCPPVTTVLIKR

ARHGAP21, Q5T5U3 = biological target: T3, ARHGAP21, Q5T5U3
T3 sequence (Q5T5U3 45-169, limits assumed, looked up): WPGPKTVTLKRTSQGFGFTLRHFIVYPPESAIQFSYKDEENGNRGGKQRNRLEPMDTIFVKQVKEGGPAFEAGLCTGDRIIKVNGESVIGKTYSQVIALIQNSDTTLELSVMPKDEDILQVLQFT

DLG1_3, Q12959 = biological target: DLG1_3, Q12959
Sequence of DLG1_3, Q12959 (Q12959 457-571): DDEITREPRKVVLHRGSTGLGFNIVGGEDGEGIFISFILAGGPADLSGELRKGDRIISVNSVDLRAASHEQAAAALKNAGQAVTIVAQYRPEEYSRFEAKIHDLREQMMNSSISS

DLG5_1, Q8TDM6 = biological target: DLG5_1, Q8TDM6
Sequence of DLG5_1, Q8TDM6 (Q8TDM6 617-713): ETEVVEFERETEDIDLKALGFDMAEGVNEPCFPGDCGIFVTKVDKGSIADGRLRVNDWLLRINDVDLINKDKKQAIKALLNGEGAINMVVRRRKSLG

FRMPD2_2, Q68DX3 = biological target: FRMPD2_2, Q68DX3
Sequence of FRMPD2_2, Q68DX3 (Q68DX3 944-1038): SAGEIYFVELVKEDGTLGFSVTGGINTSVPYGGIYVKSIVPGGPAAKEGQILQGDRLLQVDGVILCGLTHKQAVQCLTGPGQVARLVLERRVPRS

GOPC, Q9HD26 = biological target: GOPC, Q9HD26
GRASP, Q7Z6J2 = biological target: GRASP, Q7Z6J2
Sequence of GRASP, Q7Z6J2 (Q7Z6J2 96-193): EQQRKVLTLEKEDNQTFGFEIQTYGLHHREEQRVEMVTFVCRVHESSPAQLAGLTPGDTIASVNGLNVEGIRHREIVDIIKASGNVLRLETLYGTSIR

GRID2IP_1, A4D2P6 = biological target: GRID2IP_1, A4D2P6
Sequence of GRID2IP_1, A4D2P6 (A4D2P6 1-87): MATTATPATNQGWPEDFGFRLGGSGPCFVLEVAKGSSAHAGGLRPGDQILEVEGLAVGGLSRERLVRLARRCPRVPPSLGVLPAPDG

IL16_1, Q14005 = biological target: IL16_1, Q14005
Sequence of IL16_1, Q14005 (Q14005 210-306): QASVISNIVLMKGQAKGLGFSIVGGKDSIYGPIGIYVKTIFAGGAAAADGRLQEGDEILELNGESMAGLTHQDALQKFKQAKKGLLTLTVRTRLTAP

Inadl_9, Q8NI35 = biological target: Inadl_9, Q8NI35
Sequence of Inadl_9, Q8NI35 (Q8NI35 1530-1615): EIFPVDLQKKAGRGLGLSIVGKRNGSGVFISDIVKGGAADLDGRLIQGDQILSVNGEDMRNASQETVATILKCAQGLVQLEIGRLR

LAP2, Q96RT1 = biological target: LAP2, Q96RT1
Sequence of LAP2, Q96RT1 (Q96RT1 other isoform, or with tags, fused parts or gaps): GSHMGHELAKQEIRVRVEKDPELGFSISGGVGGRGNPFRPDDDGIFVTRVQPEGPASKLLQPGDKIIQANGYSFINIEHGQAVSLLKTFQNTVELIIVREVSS

LNX1_1, Q8TBB1 = biological target: LNX1_1, Q8TBB1
Sequence of LNX1_1, Q8TBB1 (Q8TBB1 261-371): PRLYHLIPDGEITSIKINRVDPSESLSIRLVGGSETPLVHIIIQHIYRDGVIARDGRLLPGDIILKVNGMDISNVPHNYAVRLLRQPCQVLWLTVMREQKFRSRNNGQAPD

MAGI2_4, Q86UL8 = biological target: MAGI2_4, Q86UL8
Sequence of MAGI2_4, Q86UL8 (Q86UL8 772-865): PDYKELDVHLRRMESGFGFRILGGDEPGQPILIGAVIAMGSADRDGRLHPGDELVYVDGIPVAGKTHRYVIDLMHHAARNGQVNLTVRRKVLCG

MAGI3_2, Q5TCQ9 = biological target: MAGI3_2, Q5TCQ9
Sequence of MAGI3_2, Q5TCQ9 (Q5TCQ9 398-503): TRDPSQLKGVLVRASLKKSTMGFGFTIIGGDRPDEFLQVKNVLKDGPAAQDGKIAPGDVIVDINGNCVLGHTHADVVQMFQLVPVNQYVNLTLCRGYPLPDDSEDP

MPDZ_10, O75970 = biological target: T4, MPDZ_10, O75970
T4 sequence (O75970 1624-1722, limits assumed, looked up): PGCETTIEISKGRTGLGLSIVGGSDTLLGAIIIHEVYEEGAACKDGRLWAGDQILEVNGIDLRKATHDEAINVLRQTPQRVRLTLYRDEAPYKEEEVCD

MPDZ_12, O75970 = biological target: T5, MPDZ_12, O75970
T5 sequence (O75970 1857-1958, limits assumed, looked up): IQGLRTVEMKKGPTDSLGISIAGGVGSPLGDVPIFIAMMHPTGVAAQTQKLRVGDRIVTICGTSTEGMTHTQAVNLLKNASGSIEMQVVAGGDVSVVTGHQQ

MPDZ_5, O75970 = biological target: T6, MPDZ_5, O75970
T6 sequence (O75970 695-796, limits assumed, looked up): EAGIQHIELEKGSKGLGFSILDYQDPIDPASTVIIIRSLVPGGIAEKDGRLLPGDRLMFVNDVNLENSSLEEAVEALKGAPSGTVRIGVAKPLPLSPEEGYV

NHERF4_1, Q86UT5-2 = biological target: NHERF4_1, Q86UT5-2
Sequence of NHERF4_1, Q86UT5-2 (Q86UT5 other isoform, or with tags, fused parts or gaps): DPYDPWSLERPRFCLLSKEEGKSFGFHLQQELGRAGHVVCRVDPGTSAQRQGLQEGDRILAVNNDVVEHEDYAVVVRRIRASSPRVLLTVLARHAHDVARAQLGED

NHERF4_2, Q86UT5 = biological target: NHERF4_2, Q86UT5
Sequence of NHERF4_2, Q86UT5 (Q86UT5 220-308): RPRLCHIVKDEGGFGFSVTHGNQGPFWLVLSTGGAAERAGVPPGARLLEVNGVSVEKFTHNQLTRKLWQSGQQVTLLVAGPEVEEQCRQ

PARD3B_1, Q8TEW8 = biological target: T7, PARD3B_1, Q8TEW8
T7 sequence (Q8TEW8 196-299, limits assumed, looked up): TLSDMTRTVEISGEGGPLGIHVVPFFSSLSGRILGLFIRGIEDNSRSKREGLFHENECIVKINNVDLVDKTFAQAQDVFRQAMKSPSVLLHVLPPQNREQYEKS

RADIL, Q96JH8 = biological target: T8, RADIL, Q96JH8
T8 sequence (Q96JH8 971-1071, limits assumed, looked up): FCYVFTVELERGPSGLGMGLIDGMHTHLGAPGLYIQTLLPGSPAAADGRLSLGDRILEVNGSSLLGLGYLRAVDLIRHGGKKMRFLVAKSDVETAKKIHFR

RAPGEF6, Q8TEU7 = biological target: T9, RAPGEF6, Q8TEU7
T9 sequence (Q8TEU7 525-625, limits assumed, looked up): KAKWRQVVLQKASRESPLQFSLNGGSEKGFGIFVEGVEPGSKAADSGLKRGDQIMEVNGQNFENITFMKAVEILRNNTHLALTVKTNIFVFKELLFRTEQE

SCRIB_1, Q14160 = biological target: SCRIB_1, Q14160
Sequence of SCRIB_1, Q14160 (Q14160 718-814): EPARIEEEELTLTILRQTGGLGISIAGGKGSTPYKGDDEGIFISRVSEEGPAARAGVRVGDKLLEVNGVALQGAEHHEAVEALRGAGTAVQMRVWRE

SHANK1, Q9Y566 = biological target: T10, SHANK1, Q9Y566
T10 sequence (Q9Y566 658-767, limits assumed, looked up): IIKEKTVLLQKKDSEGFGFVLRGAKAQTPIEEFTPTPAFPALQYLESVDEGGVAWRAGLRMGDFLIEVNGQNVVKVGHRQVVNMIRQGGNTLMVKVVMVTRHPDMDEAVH

[1] = plain residues with an end cap or a label only (N-terminal biotin on a linker: ttds)
[2] = plain residues with an end cap or a label only (N-terminal biotin on a linker: ado-ado)

Sequence of AHNAK1, Q09666 (Q09666 4-100): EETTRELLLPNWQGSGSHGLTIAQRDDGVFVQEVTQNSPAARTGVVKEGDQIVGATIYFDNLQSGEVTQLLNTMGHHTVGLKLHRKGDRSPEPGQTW

QPGTPTRTAV [MAP2K2, P36507]
pKd (AHNAK1, Q09666; [1]): below the threshold | pKd (APBA1_1, Q02410; [1]): below the threshold | pKd (APBA2_1, Q99767; [1]): below the threshold | pKd (ARHGAP21, Q5T5U3; [1]): below the threshold | pKd (DLG1_3, Q12959; [1]): below the threshold | pKd (DLG5_1, Q8TDM6; [1]): below the threshold | pKd (FRMPD2_2, Q68DX3; [1]): below the threshold | pKd (GOPC, Q9HD26; [1]): below the threshold | pKd (GRASP, Q7Z6J2; [1]): 4.56 | pKd (GRID2IP_1, A4D2P6; [1]): below the threshold | pKd (IL16_1, Q14005; [1]): below the threshold | pKd (Inadl_9, Q8NI35; [1]): below the threshold | pKd (LAP2, Q96RT1; [1]): below the threshold | pKd (LNX1_1, Q8TBB1; [1]): 3.6 | pKd (MAGI2_4, Q86UL8; [1]): 3.74 | pKd (MAGI3_2, Q5TCQ9; [1]): 3.84 | pKd (MPDZ_10, O75970; [1]): 3.59 | pKd (MPDZ_12, O75970; [1]): below the threshold | pKd (MPDZ_5, O75970; [1]): 3.49 | pKd (NHERF4_1, Q86UT5-2; [1]): 3.52 | pKd (NHERF4_2, Q86UT5; [1]): below the threshold | pKd (PARD3B_1, Q8TEW8; [1]): below the threshold | pKd (RADIL, Q96JH8; [1]): 3.54 | pKd (RAPGEF6, Q8TEU7; [1]): 3.67 | pKd (SCRIB_1, Q14160; [1]): below the threshold | pKd (SHANK1, Q9Y566; [1]): 4.17

EDLTKNHDEL [RCN1, Q15293]
pKd (AHNAK1, Q09666; [2]): below the threshold | pKd (APBA1_1, Q02410; [2]): below the threshold | pKd (APBA2_1, Q99767; [2]): 3.49 | pKd (ARHGAP21, Q5T5U3; [2]): 4.17 | pKd (DLG1_3, Q12959; [2]): 3.8 | pKd (DLG5_1, Q8TDM6; [2]): 3.49 | pKd (FRMPD2_2, Q68DX3; [2]): below the threshold | pKd (GOPC, Q9HD26; [2]): 3.52 | pKd (GRASP, Q7Z6J2; [2]): 3.86 | pKd (GRID2IP_1, A4D2P6; [2]): below the threshold | pKd (IL16_1, Q14005; [2]): below the threshold | pKd (Inadl_9, Q8NI35; [2]): below the threshold | pKd (LAP2, Q96RT1; [2]): below the threshold | pKd (LNX1_1, Q8TBB1; [2]): 3.6 | pKd (MAGI2_4, Q86UL8; [2]): 3.57 | pKd (MAGI3_2, Q5TCQ9; [2]): below the threshold | pKd (MPDZ_10, O75970; [2]): below the threshold | pKd (MPDZ_12, O75970; [2]): below the threshold | pKd (MPDZ_5, O75970; [2]): below the threshold | pKd (NHERF4_1, Q86UT5-2; [2]): 3.93 | pKd (NHERF4_2, Q86UT5; [2]): below the threshold | pKd (PARD3B_1, Q8TEW8; [2]): below the threshold | pKd (RADIL, Q96JH8; [2]): 3.61 | pKd (RAPGEF6, Q8TEU7; [2]): below the threshold | pKd (SCRIB_1, Q14160; [2]): 3.5 | pKd (SHANK1, Q9Y566; [2]): below the threshold

LDSQIQETSI [MAP4, P27816]
pKd (AHNAK1, Q09666; [1]): below the threshold | pKd (APBA1_1, Q02410; [1]): below the threshold | pKd (APBA2_1, Q99767; [1]): below the threshold | pKd (ARHGAP21, Q5T5U3; [1]): below the threshold | pKd (DLG1_3, Q12959; [1]): 4.06 | pKd (DLG5_1, Q8TDM6; [1]): below the threshold | pKd (FRMPD2_2, Q68DX3; [1]): 3.8 | pKd (GOPC, Q9HD26; [1]): 4.14 | pKd (GRASP, Q7Z6J2; [1]): below the threshold | pKd (GRID2IP_1, A4D2P6; [1]): below the threshold | pKd (IL16_1, Q14005; [1]): 3.49 | pKd (Inadl_9, Q8NI35; [1]): below the threshold | pKd (LAP2, Q96RT1; [1]): 3.86 | pKd (LNX1_1, Q8TBB1; [1]): below the threshold | pKd (MAGI2_4, Q86UL8; [1]): below the threshold | pKd (MAGI3_2, Q5TCQ9; [1]): 3.57 | pKd (MPDZ_10, O75970; [1]): below the threshold | pKd (MPDZ_12, O75970; [1]): below the threshold | pKd (MPDZ_5, O75970; [1]): below the threshold | pKd (NHERF4_1, Q86UT5-2; [1]): below the threshold | pKd (NHERF4_2, Q86UT5; [1]): below the threshold | pKd (PARD3B_1, Q8TEW8; [1]): below the threshold | pKd (RADIL, Q96JH8; [1]): below the threshold | pKd (RAPGEF6, Q8TEU7; [1]): below the threshold | pKd (SCRIB_1, Q14160; [1]): 5.56 | pKd (SHANK1, Q9Y566; [1]): 4.42
